Measured values: patent publication US20150344583A1 (Amgen, published 2015)

Tests used:
[1] = molecular target: T1, clipped form of Sumo-huBCMA, SEQ ID NO:357 (human); assay: SEC and LC/MS
T1 chain: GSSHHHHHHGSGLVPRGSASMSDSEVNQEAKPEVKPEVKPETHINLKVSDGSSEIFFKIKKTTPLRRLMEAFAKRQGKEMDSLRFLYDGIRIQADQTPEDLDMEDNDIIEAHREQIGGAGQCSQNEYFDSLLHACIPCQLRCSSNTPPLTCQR

[2] = molecular target: T2, clipped form of Sumo-huBCMA, SEQ ID NO:355 (human); assay: SEC of antibody and Sumo-BCMA mixtures
T2 chain: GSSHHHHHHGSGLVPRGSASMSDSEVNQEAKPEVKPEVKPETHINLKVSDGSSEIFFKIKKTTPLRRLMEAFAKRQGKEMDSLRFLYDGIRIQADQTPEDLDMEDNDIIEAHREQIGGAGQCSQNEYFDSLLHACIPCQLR

[3] = molecular target: T3, clipped form of Sumo-huBCMA, SEQ ID NO:356 (human); assay: SEC of antibody and Sumo-BCMA mixtures
T3 construct: the species in the SEC peak came from the Sumo fusion, so it may carry the tag
T3 chain: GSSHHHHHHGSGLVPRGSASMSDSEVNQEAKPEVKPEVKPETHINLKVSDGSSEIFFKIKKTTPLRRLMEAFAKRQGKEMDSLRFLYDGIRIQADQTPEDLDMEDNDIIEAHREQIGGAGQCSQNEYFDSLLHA

[4] = molecular target: T4, clipped form of Sumo-huBCMA, SEQ ID NO:354 (human); assay: SEC of antibody and Sumo-BCMA mixtures
T4 construct: also called peak A
T4 chain: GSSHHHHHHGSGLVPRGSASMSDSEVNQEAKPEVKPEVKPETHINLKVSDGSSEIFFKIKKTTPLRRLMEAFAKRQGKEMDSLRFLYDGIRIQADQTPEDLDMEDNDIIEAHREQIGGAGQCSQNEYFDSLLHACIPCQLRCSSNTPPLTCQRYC

[5] = molecular target: T5, cynomolgus (Macaca fascicularis) BCMA on cells (cynomolgus (Macaca fascicularis), UniProt Q02223 1-184 (human entry)); assay: summary sentence of Example 16; assay for cynomolgus BCMA not given there
T5 construct: also called cyno BCMA; cynomolgus BCMA

Measured: binding result

T5 sequence (Q02223 other isoform, or with tags, fused parts or gaps): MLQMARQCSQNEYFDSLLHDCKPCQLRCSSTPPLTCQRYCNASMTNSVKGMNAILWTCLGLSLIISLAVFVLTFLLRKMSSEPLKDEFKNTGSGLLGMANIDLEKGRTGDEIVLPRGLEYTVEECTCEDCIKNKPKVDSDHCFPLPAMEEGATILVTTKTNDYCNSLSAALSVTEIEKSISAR

B1: Ab-1 (2A1CV5) (antibody, human IgG1, lambda, V domains shown)
VH: EVQLVESGGGLVKPGGSLRLSCAASGFTFGDYALSWFRQAPGKGLEWVGVSRSKAYGGTTDYAASVKGRFTISRDDSKSTAYLQMNSLKTEDTAVYYCASSGYSSGWTPFDYWGQGTLVTVSS
VL: not shown
binds: all assays above
